From publication PMC8454712 (Biochemical Journal, 2021)

Biological target: Growth factor receptor-bound protein 2 (Grb2), HepG2 cells (human (endogenous in HepG2), UniProt P62993 1-217)
Assay: co-IP

fold change of the co-precipitated interaction, T2D condition against control: 1.35 fold
B1: NADPH oxidase NOX4, HepG2 cells (natural protein, human (endogenous in HepG2), UniProt Q9NPH5 1-578, looked up)
chain: MAVSWRSWLANEGVKHLCLFIWLSMNVLLFWKTFLLYNQGPEYHYLHQMLGLGLCLSRASASVLNLNCSLILLPMCRTLLAYLRGSQKVPSRRTRRLLDKSRTFHITCGVTICIFSGVHVAAHLVNALNFSVNYSEDFVELNAARYRDEDPRKLLFTTVPGLTGVCMVVVLFLMITASTYAIRVSNYDIFWYTHNLFFVFYMLLTLHVSGGLLKYQTNLDTHPPGCISLNRTSSQNISLPEYFSEHFHEPFPEGFSKPAEFTQHKFVKICMEEPRFQANFPQTWLWISGPLCLYCAERLYRYIRSNKPVTIISVMSHPSDVMEIRMVKENFKARPGQYITLHCPSVSALENHPFTLTMCPTETKATFGVHLKIVGDWTERFRDLLLPPSSQDSEILPFIQSRNYPKLYIDGPFGSPFEESLNYEVSLCVAGGIGVTPFASILNTLLDDWKPYKLRRLYFIWVCRDIQSFRWFADLLCMLHNKFWQENRPDYVNIQLYLSQTDGIQKIIGEKYHALNSRLFIGRPRWKLLFDEIAKYNRGKTVGVFCCGPNSLSKTLHKLSNQNNSYGTRFEYNKESFS
